What was measured:
[1] = molecular target: CHIKV E2/E1 envelope (S27 strain) displayed on particles (intact CHIKV VLPs, retroviral VLPs, pseudo (Chikungunya virus (S27 strain)) (UniProt P0DOK1))
[2] = molecular target: CHIKV E2/E1 envelope (S27 strain) displayed on particles (intact CHIKV VLPs, retroviral VLPs, pseudo (Chikungunya virus (S27 strain)) (UniProt P0DOK1)); experiment: cell-based or functional assay
[3] = molecular target: CHIKV envelope mutant E2-E24A expressed on HEK-293T cells (Chikungunya virus (S27 strain)) (UniProt P0DOK1)
[4] = molecular target: CHIKV envelope mutant E2-I121A expressed on HEK-293T cells (Chikungunya virus (S27 strain)) (UniProt P0DOK1)
[5] = molecular target: CHIKV envelope mutant E2-G55A expressed on HEK-293T cells (Chikungunya virus (S27 strain)) (UniProt P0DOK1)
[6] = molecular target: CHIKV envelope mutant E2-W64A expressed on HEK-293T cells (Chikungunya virus (S27 strain)) (UniProt P0DOK1)
[7] = molecular target: CHIKV envelope mutant E2-A162S (Chikungunya virus (S27 strain)) (UniProt P0DOK1)
[8] = molecular target: CHIKV envelope mutant E2-R80A expressed on HEK-293T cells (Chikungunya virus (S27 strain)) (UniProt P0DOK1)
[9] = molecular target: CHIKV envelope mutant E2-E24A expressed on HEK-293T cells (Chikungunya virus (S27 strain)) (UniProt P0DOK1); remark: listed apart in the source
[10] = molecular target: CHIKV envelope mutant E2-I121A expressed on HEK-293T cells (Chikungunya virus (S27 strain)) (UniProt P0DOK1); remark: listed apart in the source
[11] = molecular target: CHIKV envelope mutant E2-G55A expressed on HEK-293T cells (Chikungunya virus (S27 strain)) (UniProt P0DOK1); remark: listed apart in the source
[12] = molecular target: CHIKV envelope mutant E2-W64A expressed on HEK-293T cells (Chikungunya virus (S27 strain)) (UniProt P0DOK1); remark: listed apart in the source
[13] = molecular target: CHIKV envelope mutant E2-K66A expressed on HEK-293T cells (Chikungunya virus (S27 strain)) (UniProt P0DOK1)
[14] = molecular target: CHIKV envelope mutant E2-R80A expressed on HEK-293T cells (Chikungunya virus (S27 strain)) (UniProt P0DOK1); remark: listed apart in the source
[15] = molecular target: T1, CHIKV E2/E1 envelope (S27 strain) displayed on particles (intact CHIKV VLPs, retroviral VLPs, pseudo (Chikungunya virus (S27 strain), UniProt P0DOK1 326-748; Q8JUX5 810-1248); experiment: cell-based or functional assay
[16] = molecular target: T1, CHIKV E2/E1 envelope (S27 strain) …
[17] = molecular target: CHIKV envelope mutant E2-F84A expressed on HEK-293T cells (Chikungunya virus (S27 strain), UniProt P0DOK1 326-748; Q8JUX5 810-1248)
[18] = molecular target: CHIKV envelope mutant E2-V113A expressed on HEK-293T cells (Chikungunya virus (S27 strain), UniProt P0DOK1 326-748; Q8JUX5 810-1248)
[19] = molecular target: CHIKV envelope mutant E2-T116A expressed on HEK-293T cells (Chikungunya virus (S27 strain), UniProt P0DOK1 326-748; Q8JUX5 810-1248)
[20] = molecular target: CHIKV envelope mutant E2-Y69A expressed on HEK-293T cells (Chikungunya virus (S27 strain), UniProt P0DOK1 326-748; Q8JUX5 810-1248)
[21] = molecular target: CHIKV envelope mutant E2-D117A expressed on HEK-293T cells (Chikungunya virus (S27 strain), UniProt P0DOK1 326-748; Q8JUX5 810-1248)
[22] = molecular target: CHIKV envelope mutant E2-G114A expressed on HEK-293T cells (Chikungunya virus (S27 strain), UniProt P0DOK1 326-748; Q8JUX5 810-1248)

B1: MAb CAP4A-E7 (IM-CKV063), human IgG1 (antibody, V domains shown)
VH: QVQLVQSGAEVKKPGSAVKVSCKASGGTLRKYAISWLRQAPGQGLEWMGGIIPIFGTANYAQKFQGRVTITADESTTTPYTTTPYTSTAYIELTSLRSEDTAVYYCARDLGPLTGYSYSYFDYWGQGTLVTVSS
VL: EIVMTQSPATLSLSPGERATLSCRASQSVSSYLAWYQQKPGQAPRLLIYDASNRATGIPDRFSGSGSGTDFTLTISRLEPEDFAVYYCQQYANSRRTFGQGTKVEIT
[1]
  Kd: 0.32 nM
  koff: 9.4e-05 s⁻¹
  kon: 290000 M⁻¹ s⁻¹
[2]
  IC50, neutralization of reporter viruses pseudotyped with CHIKV S27 E2/E1: 0.0074 µg/mL
  PRNT50, live CHIKV S27 on Vero cells: 11 ng/mL

B2: purified Fab CAP4A-E7 (Fab, V domains shown)
VH: B1 VH
VL: B1 VL
[3]
  percent wild-type reactivity (percent wild-type): 15
[4]
  percent wild-type reactivity (percent wild-type): 2
[5]
  percent wild-type reactivity (percent wild-type): 12
[6]
  percent wild-type reactivity (percent wild-type): 1
[7]
  percent wild-type reactivity (percent wild-type): 37
[8]
  percent wild-type reactivity (percent wild-type): 3
[9]
  binding relative to wild-type E2/E1 (% of wild-type): < 20
[10]
  binding relative to wild-type E2/E1 (% of wild-type): < 20
[11]
  binding relative to wild-type E2/E1 (% of wild-type): < 20
[12]
  binding relative to wild-type E2/E1 (% of wild-type): < 20
[13]
  binding relative to wild-type E2/E1 (% of wild-type): < 20
[14]
  binding relative to wild-type E2/E1 (% of wild-type): < 20

B3: MAb CAP5A-F6 (IM-CKV065), human IgG1 (antibody, V domains shown)
VH: EVQLVQSGPEVKKPGASVKVSCKASGYTFSNYGVSWVRQAPGQGLEWLGWISAYNGNTKYAQKFEGRVTLTTDSLSDTAYMELRSLRSDDTAVYYCVRDDRSGYYYLPFDFWGQGTLVTVSS
VL: DIQLTQSPSFLSASVGDRVTITCRASQGISSYLAWYQQKPGKAPKLLIFAASTLQSGVPSRFSGSGSGTDYTLTISSLQPEDFATYYCQQSYSNPTFGQGTRLEIK
[15]
  IC50, neutralization of reporter viruses pseudotyped with CHIKV S27 E2/E1: 0.17 µg/mL
[16]
  Kd: 9.3 nM
  koff: 0.0015 s⁻¹
  kon: 160000 M⁻¹ s⁻¹

B4: CAP101A-E8 (IM-CKV056), converted to full length human IgG (antibody, V domains shown)
VH: QVQLVQSGGGVVQPGRSLRLSCAASGFTLSTYGLHWVRQAPGKGLEWVAVISYDGTNKYYADSVKGRFTVSWDNSKNTLYLQMNSLRAEDTAVYYCAKDLASSSWSDYYHYGMDVWGQGTMVTVSS
VL: DIQLTQSPSTLSASVGDRITITCRATQSIGSWLAWYQQKPGKAPKLLIYKASSLESGVPSRFSGSGSATEFTLTISGLQPEDFATYYCQQLKSFPLTFGPGTKVDIQ
[17]
  reactivity relative to WT CHIKV env: < 20 % of WT
[18]
  reactivity relative to WT CHIKV env: < 20 % of WT
[19]
  reactivity relative to WT CHIKV env: < 20 % of WT
[20]
  reactivity relative to WT CHIKV env: < 20 % of WT
[21]
  reactivity relative to WT CHIKV env: < 20 % of WT
[22]
  reactivity relative to WT CHIKV env: < 20 % of WT

From patent US20160145323A1 (INTEGRAL MOLECULAR, published 2016)
